Test results from paper PMC3026782, “The Cytoskeletal Protein Ndel1 Regulates Dynamin 2 GTPase Activity” (PLoS ONE, 2011).

Assays:
[1] = target: T1, GST-Dyn2 F5 (GTPase+middle+PH+GED domains); assay: cell-based or functional assay
T1 chain: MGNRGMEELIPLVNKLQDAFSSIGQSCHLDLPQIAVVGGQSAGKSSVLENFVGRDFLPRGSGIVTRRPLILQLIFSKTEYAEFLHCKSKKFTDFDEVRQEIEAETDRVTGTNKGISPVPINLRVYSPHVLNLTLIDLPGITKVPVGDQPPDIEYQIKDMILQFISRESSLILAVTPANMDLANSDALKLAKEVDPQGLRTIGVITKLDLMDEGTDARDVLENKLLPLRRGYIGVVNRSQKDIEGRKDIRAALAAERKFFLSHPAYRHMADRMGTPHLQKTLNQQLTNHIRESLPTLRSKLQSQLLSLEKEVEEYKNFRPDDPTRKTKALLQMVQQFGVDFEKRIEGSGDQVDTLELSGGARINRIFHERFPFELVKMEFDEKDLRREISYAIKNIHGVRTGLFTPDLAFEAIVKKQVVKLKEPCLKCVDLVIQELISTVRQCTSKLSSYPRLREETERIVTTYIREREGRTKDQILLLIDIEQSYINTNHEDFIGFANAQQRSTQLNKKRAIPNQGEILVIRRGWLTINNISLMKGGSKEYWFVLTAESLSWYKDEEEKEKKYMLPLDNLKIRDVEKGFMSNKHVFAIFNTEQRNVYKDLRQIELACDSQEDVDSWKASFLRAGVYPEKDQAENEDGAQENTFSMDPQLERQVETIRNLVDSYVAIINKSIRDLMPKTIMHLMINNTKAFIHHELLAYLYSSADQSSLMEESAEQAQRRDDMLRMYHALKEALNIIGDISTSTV

GST-fused Dyn2 = target: T2, GST-fused Dyn2 (UniProt P50570 1-870); assay: cell-based or functional assay
T2 sequence (looked up): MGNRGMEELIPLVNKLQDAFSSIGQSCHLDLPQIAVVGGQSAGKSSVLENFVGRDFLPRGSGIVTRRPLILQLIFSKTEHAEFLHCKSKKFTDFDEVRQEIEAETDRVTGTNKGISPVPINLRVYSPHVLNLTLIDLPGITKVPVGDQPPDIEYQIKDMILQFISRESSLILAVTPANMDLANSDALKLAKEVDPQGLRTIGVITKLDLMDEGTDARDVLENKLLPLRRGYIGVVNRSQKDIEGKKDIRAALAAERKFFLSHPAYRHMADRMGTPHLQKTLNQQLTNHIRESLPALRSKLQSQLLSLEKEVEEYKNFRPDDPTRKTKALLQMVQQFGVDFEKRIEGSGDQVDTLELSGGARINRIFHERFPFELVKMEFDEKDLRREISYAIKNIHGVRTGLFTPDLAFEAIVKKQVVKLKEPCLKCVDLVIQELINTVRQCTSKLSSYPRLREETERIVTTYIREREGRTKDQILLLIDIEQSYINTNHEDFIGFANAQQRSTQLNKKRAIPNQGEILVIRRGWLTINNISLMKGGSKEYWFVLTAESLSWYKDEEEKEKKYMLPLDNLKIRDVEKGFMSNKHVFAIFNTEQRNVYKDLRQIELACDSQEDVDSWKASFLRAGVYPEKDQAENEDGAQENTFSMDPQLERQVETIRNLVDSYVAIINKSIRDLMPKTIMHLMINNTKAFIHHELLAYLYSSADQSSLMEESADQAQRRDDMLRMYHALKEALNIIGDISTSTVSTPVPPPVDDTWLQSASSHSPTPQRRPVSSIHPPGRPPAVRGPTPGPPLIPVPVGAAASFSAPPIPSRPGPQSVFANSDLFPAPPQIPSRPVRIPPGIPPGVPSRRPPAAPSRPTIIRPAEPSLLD

B1: His-tagged Ndel1 (natural protein, UniProt Q9GZM8 1-345, looked up)
chain: MDGEDIPDFSSLKEETAYWKELSLKYKQSFQEARDELVEFQEGSRELEAELEAQLVQAEQRNRDLQADNQRLKYEVEALKEKLEHQYAQSYKQVSVLEDDLSQTRAIKEQLHKYVRELEQANDDLERAKRATIVSLEDFEQRLNQAIERNAFLESELDEKESLLVSVQRLKDEARDLRQELAVRERQQEVTRKSAPSSPTLDCEKMDSAVQASLSLPATPVGKGTENTFPSPKAIPNGFGTSPLTPSARISALNIVGDLLRKVGALESKLAACRNFAKDQASRKSYISGNVNCGVLNGNGTKFSRSGHTSFFDKGAVNGFDPAPPPPGLGSSRPSSAPGMLPLSV
non-radioactive (ELIPA) GTPase assay of F5 with against without Ndel1 [1]: ~1.3 fold
radioactive GTPase assay: hydrolysis of GTP into GDP by Dyn2 oligomers (low salt) with against without Ndel1, over 60 minutes (GST-fused Dyn2): ~2 fold
